Measurements taken from US20110263827A1 (AbbVie / Abbott, published 2011).

B1: DVD768 (bispecific antibody)
VH: EVQLVQSGGGLVKPGGSLRLSCAASGFTFSSYAMHWVRQAPGKGLEWVAVISYDGSNKYYADSVKGRFTISRDNSKNTLYLQMNSLRAEDTAVYYCARFSGWPNNYYYYGMDVWGQGTTVTVSSASTKGPSVFPLAPQVQLQESGPGLVKPSQTLSLTCTVSGYSISSDFAWNWIRQPPGKGLEWMGYISYSGNTRYQPSLKSRITISRDTSKNQFFLKLNSVTAADTATYYCVTAGRGFPYWGQGTLVTVSS
VL: DVVMTQSPLSLPVTPGEPASISCRSSQSLLHSNGFNYVDWYLQKPGQSPHLLIYFGSYRASGVPDRFSGSGSGTDFTLKISRVEAEDVGVYYCMQALQTPPWTFGQGTKVEIRRTVAAPSVFIFPPDIQMTQSPSSMSVSVGDRVTITCHSSQDINSNIGWLQQKPGKSFKGLIYHGTNLDDGVPSRFSGSGSGTDYTLTISSLQPEDFATYYCVQYAQFPWTFGGGTKLEIKR
notes: DVD-Ig; HC L, LC L; variable parts only
B2: DVD326 (bispecific antibody)
VH: EVQLVQSGGGLVKPGGSLRLSCAASGFTFSSYAMHWVRQAPGKGLEWVAVISYDGSNKYYADSVKGRFTISRDNSKNTLYLQMNSLRAEDTAVYYCARFSGWPNNYYYYGMDVWGQGTTVTVSSASTKGPQVQLQESGPGLVKPSQTLSLTCTVSGYSISSDFAWNWIRQPPGKGLEWMGYISYSGNTRYQPSLKSRITISRDTSKNQFFLKLNSVTAADTATYYCVTAGRGFPYWGQGTLVTVSS
VL: DVVMTQSPLSLPVTPGEPASISCRSSQSLLHSNGFNYVDWYLQKPGQSPHLLIYFGSYRASGVPDRFSGSGSGTDFTLKISRVEAEDVGVYYCMQALQTPPWTFGQGTKVEIRRTVAAPDIQMTQSPSSMSVSVGDRVTITCHSSQDINSNIGWLQQKPGKSFKGLIYHGTNLDDGVPSRFSGSGSGTDYTLTISSLQPEDFATYYCVQYAQFPWTFGGGTKLEIKR
notes: DVD-Ig; HC S, LC S; variable parts only
B3: DVD776 (bispecific antibody)
VH: EVQLLESGGGLVQPGGSLRLSCTASGFTFSSYAMNWVRQAPGKGLEWVSAISGSGGTTFYADSVKGRFTISRDNSRTTLYLQMNSLRAEDTAVYYCAKDLGWSDSYYYYYGMDVWGQGTTVTVSSASTKGPSVFPLAPQVQLQESGPGLVKPSQTLSLTCTVSGYSISSDFAWNWIRQPPGKGLEWMGYISYSGNTRYQPSLKSRITISRDTSKNQFFLKLNSVTAADTATYYCVTAGRGFPYWGQGTLVTVSS
VL: DIQMTQFPSSLSASVGDRVTITCRASQGIRNDLGWYQQKPGKAPKRLIYAASRLHRGVPSRFSGSGSGTEFTLTISSLQPEDFATYYCLQHNSYPCSFGQGTKLEIKRTVAAPSVFIFPPDIQMTQSPSSMSVSVGDRVTITCHSSQDINSNIGWLQQKPGKSFKGLIYHGTNLDDGVPSRFSGSGSGTDYTLTISSLQPEDFATYYCVQYAQFPWTFGGGTKLEIKR
notes: as for B1
B4: DVD798 (bispecific antibody)
VH: B1 VH
VL: B2 VL
notes: DVD-Ig; HC L, LC S; variable parts only
B5: DVD806 (bispecific antibody)
VH: B3 VH
VL: DIQMTQFPSSLSASVGDRVTITCRASQGIRNDLGWYQQKPGKAPKRLIYAASRLHRGVPSRFSGSGSGTEFTLTISSLQPEDFATYYCLQHNSYPCSFGQGTKLEIKRTVAAPDIQMTQSPSSMSVSVGDRVTITCHSSQDINSNIGWLQQKPGKSFKGLIYHGTNLDDGVPSRFSGSGSGTDYTLTISSLQPEDFATYYCVQYAQFPWTFGGGTKLEIKR
notes: as for B4
B6: DVD828 (bispecific antibody)
VH: B2 VH
VL: B1 VL
notes: DVD-Ig; HC S, LC L; variable parts only
B7: DVD836 (bispecific antibody)
VH: EVQLLESGGGLVQPGGSLRLSCTASGFTFSSYAMNWVRQAPGKGLEWVSAISGSGGTTFYADSVKGRFTISRDNSRTTLYLQMNSLRAEDTAVYYCAKDLGWSDSYYYYYGMDVWGQGTTVTVSSASTKGPQVQLQESGPGLVKPSQTLSLTCTVSGYSISSDFAWNWIRQPPGKGLEWMGYISYSGNTRYQPSLKSRITISRDTSKNQFFLKLNSVTAADTATYYCVTAGRGFPYWGQGTLVTVSS
VL: B3 VL
notes: as for B6
B8: DVD334 (bispecific antibody)
VH: B7 VH
VL: B5 VL
notes: as for B2
B9: DVD777 (bispecific antibody)
VH: QVQLQESGPGLVKPSQTLSLTCTVSGYSISSDFAWNWIRQPPGKGLEWMGYISYSGNTRYQPSLKSRITISRDTSKNQFFLKLNSVTAADTATYYCVTAGRGFPYWGQGTLVTVSSASTKGPSVFPLAPQVQLVESGGGLVKPGGSLRLSCAASGFTFSDYYMSWIRQAPGKGLEWVSYISSSGSTIYYADSVKGRFTISRDNAKNSLYLQMNSLRAEDTAVYYCARDEYNSGWYVLFDYWGQGTLVTVSS
VL: DIQMTQSPSSMSVSVGDRVTITCHSSQDINSNIGWLQQKPGKSFKGLIYHGTNLDDGVPSRFSGSGSGTDYTLTISSLQPEDFATYYCVQYAQFPWTFGGGTKLEIKRTVAAPSVFIFPPDIQMTQSPSSVSASVGDRVTITCRASQGISSWLAWYQQKPGKAPNLLIYEASSLQSGVPSRFGGSGSGTDFTLTISSLQPEDFATYYCQQANGFPWTFGQGTKVEIKR
notes: as for B1
B10: DVD775 (bispecific antibody)
VH: QVQLQESGPGLVKPSQTLSLTCTVSGYSISSDFAWNWIRQPPGKGLEWMGYISYSGNTRYQPSLKSRITISRDTSKNQFFLKLNSVTAADTATYYCVTAGRGFPYWGQGTLVTVSSASTKGPSVFPLAPEVQLLESGGGLVQPGGSLRLSCTASGFTFSSYAMNWVRQAPGKGLEWVSAISGSGGTTFYADSVKGRFTISRDNSRTTLYLQMNSLRAEDTAVYYCAKDLGWSDSYYYYYGMDVWGQGTTVTVSS
VL: DIQMTQSPSSMSVSVGDRVTITCHSSQDINSNIGWLQQKPGKSFKGLIYHGTNLDDGVPSRFSGSGSGTDYTLTISSLQPEDFATYYCVQYAQFPWTFGGGTKLEIKRTVAAPSVFIFPPDIQMTQFPSSLSASVGDRVTITCRASQGIRNDLGWYQQKPGKAPKRLIYAASRLHRGVPSRFSGSGSGTEFTLTISSLQPEDFATYYCLQHNSYPCSFGQGTKLEIKR
notes: as for B1
B11: DVD805 (bispecific antibody)
VH: B10 VH
VL: DIQMTQSPSSMSVSVGDRVTITCHSSQDINSNIGWLQQKPGKSFKGLIYHGTNLDDGVPSRFSGSGSGTDYTLTISSLQPEDFATYYCVQYAQFPWTFGGGTKLEIKRTVAAPDIQMTQFPSSLSASVGDRVTITCRASQGIRNDLGWYQQKPGKAPKRLIYAASRLHRGVPSRFSGSGSGTEFTLTISSLQPEDFATYYCLQHNSYPCSFGQGTKLEIKR
notes: as for B4
B12: DVD835 (bispecific antibody)
VH: QVQLQESGPGLVKPSQTLSLTCTVSGYSISSDFAWNWIRQPPGKGLEWMGYISYSGNTRYQPSLKSRITISRDTSKNQFFLKLNSVTAADTATYYCVTAGRGFPYWGQGTLVTVSSASTKGPEVQLLESGGGLVQPGGSLRLSCTASGFTFSSYAMNWVRQAPGKGLEWVSAISGSGGTTFYADSVKGRFTISRDNSRTTLYLQMNSLRAEDTAVYYCAKDLGWSDSYYYYYGMDVWGQGTTVTVSS
VL: B10 VL
notes: as for B6
B13: DVD333 (bispecific antibody)
VH: B12 VH
VL: B11 VL
notes: as for B2

target: T1, EGFR (UniProt P00533 25-645, limits assumed, biotinylated); experiment: direct bind ELISA, C-term VD;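 note: ELISA with antibody or DVD-Ig preparations applied to target antigen-coated plates for 1 h at room temperature, TMB colour development, absorbance read at 450 nm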
T1 construct: ELISA antigen; construct not described

B1 and B2 are within 1.5-fold of each other in EC50: 20.7 nM for the first, 29.9 nM for the second.

First: B3
Second: B4
The EC50 of the first is 16-fold higher: 286 nM for the first, 17.9 nM for the second.

Going from B5 to B6, the EC50 falls from 53.8 nM to 19.8 nM (2.7-fold). The second is the more potent here.

Going from B7 to B8, the EC50 rises from 56.8 nM to 137 nM (2.4-fold). The first is the more potent here.

target: T2, HGF (UniProt P14210 32-728, limits assumed, biotinylated); experiment: direct bind ELISA, C-term VD;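 note: ELISA with antibody or DVD-Ig preparations applied to target antigen-coated plates for 1 h at room temperature, TMB colour development, absorbance read at 450 nm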
T2 construct: ELISA antigen

B9 was tested, and the EC50 was 0.96 nM.

target: T3, IGF1R (UniProt P08069 31-932, limits assumed, biotinylated); experiment: direct bind ELISA, C-term VD;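 note: ELISA with antibody or DVD-Ig preparations applied to target antigen-coated plates for 1 h at room temperature, TMB colour development, absorbance read at 450 nm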
T3 construct: ELISA antigen

Compared with B10, B11 is 2.8-fold lower in EC50: 2.77 nM for the first, 0.99 nM for the second. The second is the more potent here.

Compared with B12, B13 is 23-fold higher in EC50: 3.47 nM for the first, 78.6 nM for the second. The first is the more potent here.

target: RON (UniProt Q04912 25-571, biotinylated); experiment: direct bind ELISA, N-term VD;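 note: antibody or DVD-Ig preparations bound to immobilized target antigen on ELISA plates, 1 h at room temperature, TMB detection read as absorbance at 450 nm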

B1 and B2 are the same in EC50: 0.18 nM for the first, 0.18 nM for the second.

B4 and B6 are within 1.5-fold of each other in EC50: 0.18 nM for the first, 0.2 nM for the second.

target: T1, EGFR; experiment: direct bind ELISA, N-term VD;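 note: antibody or DVD-Ig preparations bound to immobilized target antigen on ELISA plates, 1 h at room temperature, TMB detection read as absorbance at 450 nm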

B10 and B9 are within 1.5-fold of each other in EC50: 3.59 nM for the first, 5.13 nM for the second.

Compared with B11, B12 is 5-fold higher in EC50: 0.48 nM for the first, 2.42 nM for the second. The first is the more potent here.

In the case of B13, the EC50 is reported as 3.55 nM.

target: T3, IGF1R; experiment: direct bind ELISA, N-term VD;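 note: antibody or DVD-Ig preparations bound to immobilized target antigen on ELISA plates, 1 h at room temperature, TMB detection read as absorbance at 450 nm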

Compared with B3, B5 is 2.1-fold lower in EC50: 0.83 nM for the first, 0.4 nM for the second.

Going from B7 to B8, the EC50 falls from 0.51 nM to 0.19 nM (2.7-fold). The second is the more potent here.
